The target of the assay is T1, β2m (12 kDa non-polymorphic light chain) (human, UniProt P61769 21-119).
T1 construct: No recombinant β2m was added; It came from the human HEK293 cells and co-purified under native conditions; also called beta-2-microglobulin
The experiment in a line: immunoblot of the purified protein with anti-β2m antibody (co-purification under native conditions). Here is the method: Human leukocyte antigens are heterodimeric molecules comprised of glycosylated heavy chains non-covalently associated with a 12 kDa non-polymorphic light chain called β2m. PurifiedrsHLA-G1 (10 to 100 ng) and rsHLA-G2 (10 to 1000 ng) were separated on 15% SDS-PAGE, transferred to nitrocellulose membranes and immuno-detected with anti-Flag M1 antibody or anti-β2m, as shown in FIG. 6. Only rsHLA-G1 was positive for β2m. […] To produce the immunoblot of FIG. 6, purified recombinant sHLA-G1 (10-100 ng) and purified recombinant sHLA-G2 (10-1000 ng) were separated using 15% PAGE-SDS and electrotransferred to nitrocellulose membranes. One blot was detected with anti-Flag-M1 antibody and the other with a mouse anti-β2m. This experiment provides evidence that sBLA-G2 is produced as free alpha chains, while sHLA-G1 is bound to β2m.
(In general: A western blot detects proteins with antibodies after separation by electrophoresis.)

T1 sequence (P61769 21-119 limits assumed): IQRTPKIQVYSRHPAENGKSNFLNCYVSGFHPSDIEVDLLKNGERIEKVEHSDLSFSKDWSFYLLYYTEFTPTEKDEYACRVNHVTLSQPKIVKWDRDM

B1: recombinant soluble HLA-G2 (other)
MHC heavy: APLADYKDDDDKLAGSHSMRYFSAAVSRPGRGEPRFIAMGYVDDTQFVRFDSDSACPRMEPRAPWVEQEGPEYWEEETRNTKAHAQTDRMNLQTLRGYYNQSEANPPKTHVTHHPVFDYEATLRCWALGFYPAEIILTWQRDGEDQTQDVELVETRPAGDGTFQKWAAVVVPSGEEQRYTCHVQHEGLPEPLMLRWSKEGDGGIMSVRESRSLSEDL
modifications: glycosylated
notes: Secreted from HEK293 cells; The first amino acid of the α3 domain is asparagine, not aspartic acid as in sHLA-G1; Produced as free alpha chains; also called rsHLA-G2; sHLA-G2
In the case of B1, the binding result is reported as “no binding (tested: up to 1 µg)”.
